Measurements from US20230220078A1 (NAVI BIO THERAPEUTICS, published 2023).

B1: NECTIN4-scFv-S6 (scFv, V domains shown)
VH: TVTLDESGGGLQTPGGGLSLVCKGSGFTFSSNGMAWVRQAPGKGLEFVAGVNAAGSWTGYGAAVKGRATISRDNGQSTVRLQLNDLRAEDTGTYYCAKTADDWYGADDIDAWGHGTEVIVSS
VL: ALTQPSSVSTNLGETVEITCSGSSGYGYGWYQQKSPGSAPVTVIYSNDKRPSDIPSRFSGSASGSTATLTITGVRAEDEAVYLCGGYDSSASYVGIFGAGTTLTVL
notes: Chicken-derived scFv, tested as purified scFv
B2: NECTIN4-scFv-L1 (scFv, V domains shown)
VH: AVTLDESGGGLQAPGGGLSLVCRASGFTFSSHGMFWVRQAPGKGLEFVAGISDAGSWTGYGAAVKGRATISRDSGQSTVRLQLNNLRAEDTGIYYCAKSAGDWYGADDIDAWGHGTEVIVSS
VL: ALTQPSSVSANPGETVKITCSGGSSNYYGWYQQKSPGSAPVTLIYNNNKRPSDIPSRFSASKSGSTHTLTITGVRAEDEAVYFCGGWDKSAGIFGAGTTLTVL
notes: as for B1
B3: NECTIN4-scFv-S21 (scFv, V domains shown)
VH: AVTLDESGGGLQTPGGALSLVCKASGFTFSSYAMMWVRQAPGKGLEYIAGIRSDGRYTYYGAAVKGRATISRDNGQSTVRLQLNNLRAEDTGTYYCAKSGVTDTSSSTYSSASNIDAWGHGTEVIVSS
VL: ALTQPSSVSANLGGTVKITCSGGSGSYGWYQQKSPGSAPVTLIYANTNRPSDIPSRFSGSKSGSTSTLTITGVQAEDVAVYYCGSRDSSYVGIFGAGTTLTVL
notes: Chicken-derived scFv from a pComb3X phage library, tested as purified scFv; also called anti-PVRL4 scFv S21; NECTIN4-scFv-521

Tests used:
[1] = target: T1, PVRL4_864 (94-957, 864 bps, r864p) recombinant fragment of Nectin-4 (PVRL4_HUMAN) (human, UniProt Q96NY8 32-319); assay: competitive ELISA of purified scFv on r864p
T1 construct: His-tagged and purified on Ni-sepharose from a 6M urea lysate; also called his-PVRL4_864
T1 sequence (looked up): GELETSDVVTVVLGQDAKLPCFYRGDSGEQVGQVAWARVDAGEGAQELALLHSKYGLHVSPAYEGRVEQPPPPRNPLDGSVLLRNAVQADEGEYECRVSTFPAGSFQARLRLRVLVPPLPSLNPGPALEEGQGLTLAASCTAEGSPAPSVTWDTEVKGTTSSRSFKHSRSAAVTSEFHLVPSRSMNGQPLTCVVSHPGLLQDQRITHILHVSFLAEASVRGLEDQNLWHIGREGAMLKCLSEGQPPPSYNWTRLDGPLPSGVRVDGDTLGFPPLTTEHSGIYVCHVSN

[2] = target: T1, PVRL4_864 (94-957, 864 bps, r864p) …; assay: ELISA titration of purified scFv on PVRL4 864
[3] = target: T1, PVRL4_864 (94-957, 864 bps, r864p) …; assay: competitive ELISA of purified scFv on r864p; competitive ELISA, purified scFv S21 on r864p

Binder	50% concentration [1] [µg/mL]	Kd [1] [nM]	concentration of scFv at OD450 nm value of 1 [2] [µg/mL]	Kd [3] [nM]
B1	34.9	942	0.31	–
B2	34.7	939	0.04	–
B3	52.5	–	0.02	1410
